{"source": "patent US20180155451A1", "about": "(published 2018)", "binders": {"B1": {"name": "GpH7-A5/GpH7-B3 variant S239_10E/GpL16-k0 (antibody, human IgG1, kappa)", "heavy 1": "not shown", "heavy 2": "not shown", "light": "DIVMTQSPLSLPVTPGEPASISCQASESLVHSNRNTYLHWYLQKPGQSPQLLIYKVSNRFSGVPDRFSGSGSGTDFTLKISRVEAEDVGVYYCSQNTHVPPTFGQGTKVEIERTVAAPSVFIFPPSDEQLKSGTASVVCLLNNFYPREAKVQWKVDNALQSGNSQESVTEQDSKDSTYSLSSTLTLSKADYEKHKVYACEVTHQGLSSPVTKSFNRGEC", "notes": "Heterodimerized IgG1 (He Ab); mutation only in the GpH7-B3 chain; also called He Ab S239E"}, "B2": {"name": "GpH7-A5/GpH7-B3 variant S239_01G/GpL16-k0 (antibody, human IgG1, kappa)", "heavy 1": "not shown", "heavy 2": "not shown", "light": "DIVMTQSPLSLPVTPGEPASISCQASESLVHSNRNTYLHWYLQKPGQSPQLLIYKVSNRFSGVPDRFSGSGSGTDFTLKISRVEAEDVGVYYCSQNTHVPPTFGQGTKVEIERTVAAPSVFIFPPSDEQLKSGTASVVCLLNNFYPREAKVQWKVDNALQSGNSQESVTEQDSKDSTYSLSSTLTLSKADYEKHKVYACEVTHQGLSSPVTKSFNRGEC", "notes": "Heterodimerized anti-glypican-3 IgG1; the substitution stands in the GpH7-B3 chain only; also called He Ab"}, "B3": {"name": "GpH7-A5/GpH7-B3 variant V266_10E/GpL16-k0 (antibody, human IgG1, kappa)", "heavy 1": "not shown", "heavy 2": "not shown", "light": "DIVMTQSPLSLPVTPGEPASISCQASESLVHSNRNTYLHWYLQKPGQSPQLLIYKVSNRFSGVPDRFSGSGSGTDFTLKISRVEAEDVGVYYCSQNTHVPPTFGQGTKVEIERTVAAPSVFIFPPSDEQLKSGTASVVCLLNNFYPREAKVQWKVDNALQSGNSQESVTEQDSKDSTYSLSSTLTLSKADYEKHKVYACEVTHQGLSSPVTKSFNRGEC", "notes": "Heterodimerized IgG1 (He Ab); mutation only in the GpH7-B3 chain; also called He Ab V266E"}, "B4": {"name": "GpH7-A5/GpH7-B3 variant V266_07I/GpL16-k0 (antibody, human IgG1, kappa)", "heavy 1": "not shown", "heavy 2": "not shown", "light": "DIVMTQSPLSLPVTPGEPASISCQASESLVHSNRNTYLHWYLQKPGQSPQLLIYKVSNRFSGVPDRFSGSGSGTDFTLKISRVEAEDVGVYYCSQNTHVPPTFGQGTKVEIERTVAAPSVFIFPPSDEQLKSGTASVVCLLNNFYPREAKVQWKVDNALQSGNSQESVTEQDSKDSTYSLSSTLTLSKADYEKHKVYACEVTHQGLSSPVTKSFNRGEC", "notes": "Heterodimerized IgG1 (He Ab); mutation only in the GpH7-B3 chain; also called He Ab V266I"}, "B5": {"name": "GpH7-A5/GpH7-B3 variant V266_14T/GpL16-k0 (antibody, human IgG1, kappa)", "heavy 1": "not shown", "heavy 2": "not shown", "light": "DIVMTQSPLSLPVTPGEPASISCQASESLVHSNRNTYLHWYLQKPGQSPQLLIYKVSNRFSGVPDRFSGSGSGTDFTLKISRVEAEDVGVYYCSQNTHVPPTFGQGTKVEIERTVAAPSVFIFPPSDEQLKSGTASVVCLLNNFYPREAKVQWKVDNALQSGNSQESVTEQDSKDSTYSLSSTLTLSKADYEKHKVYACEVTHQGLSSPVTKSFNRGEC", "notes": "Heterodimerized IgG1 (He Ab); mutation only in the GpH7-B3 chain; also called He Ab V266T"}, "B6": {"name": "GpH7-A5/GpH7-B3 variant S239_18N/GpL16-k0 (antibody, human IgG1, kappa)", "heavy 1": "not shown", "heavy 2": "not shown", "light": "DIVMTQSPLSLPVTPGEPASISCQASESLVHSNRNTYLHWYLQKPGQSPQLLIYKVSNRFSGVPDRFSGSGSGTDFTLKISRVEAEDVGVYYCSQNTHVPPTFGQGTKVEIERTVAAPSVFIFPPSDEQLKSGTASVVCLLNNFYPREAKVQWKVDNALQSGNSQESVTEQDSKDSTYSLSSTLTLSKADYEKHKVYACEVTHQGLSSPVTKSFNRGEC", "notes": "Heterodimerized IgG1 (He Ab); mutation only in the GpH7-B3 chain; also called He Ab S239N"}, "B7": {"name": "GpH7-A5/GpH7-B3 variant V266_13S/GpL16-k0 (antibody, human IgG1, kappa)", "heavy 1": "not shown", "heavy 2": "not shown", "light": "DIVMTQSPLSLPVTPGEPASISCQASESLVHSNRNTYLHWYLQKPGQSPQLLIYKVSNRFSGVPDRFSGSGSGTDFTLKISRVEAEDVGVYYCSQNTHVPPTFGQGTKVEIERTVAAPSVFIFPPSDEQLKSGTASVVCLLNNFYPREAKVQWKVDNALQSGNSQESVTEQDSKDSTYSLSSTLTLSKADYEKHKVYACEVTHQGLSSPVTKSFNRGEC", "notes": "Heterodimerized IgG1 (He Ab); mutation only in the GpH7-B3 chain; also called He Ab V266S"}}, "key": {"[1]": {"biological_target": "T1, FcγRIIb, extracellular domain with C-terminal His tag (human, UniProt P31994 43-217)", "T1 construct": "extracellular domain; also called 2b; FcgRIIb; not shown: His tag at the C terminus", "T1 sequence (looked up)": "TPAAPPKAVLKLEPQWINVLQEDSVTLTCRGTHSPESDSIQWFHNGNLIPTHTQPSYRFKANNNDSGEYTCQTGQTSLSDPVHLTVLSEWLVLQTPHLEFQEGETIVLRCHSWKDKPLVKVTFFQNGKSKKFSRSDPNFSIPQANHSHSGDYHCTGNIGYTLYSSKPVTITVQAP", "assay": "SPR (Biacore), antibody captured on antigen-peptide chip, FcγR as analyte; GpH7-A5/GpH7-B3/GpL16-k0 = 100", "procedure": "(§1) The heterodimerized antibodies He Abs in which one of the H chains was introduced with an alteration were assayed for their binding activities to each activating FcγR and inhibitory FcγR according to the method described in Example 4. […] The activating FcγRs in FIGS. 26, 27, 28, and 29 are FcγRIa, FcγRIIa (R), FcγRIIa (H), and FcγRIIIa, respectively.\n(§2) Analysis of interaction between objective antibody and the FcγR was carried out using Biacore T100 (GE Healthcare). HBS-EP+ (GE Healthcare) was used as the running buffer, and the measurement temperature was set to 25° C. Chips produced by immobilizing the antigen peptide by the amine coupling method to a Series S Sencor Chip CM5 (GE Healthcare), or alternatively, chips produced by allowing preliminarily biotinylated antigen peptides to interact with and immobilize onto a Series S Sensor Chip SA (certified) (GE Healthcare) were used. Antibodies of interest were captured onto an antigen peptide-immobilized chip, and allowed to interact to each FcγR diluted with running buffer. To regenerate and repeatedly use the chip, the antibodies captured on the chip were washed off by reacting 10 mM glycine-HCl, pH 1.5."}, "[2]": {"biological_target": "T2, FcγRIIa H (FcγRIIa type H, His at position 131), extracellular domain with C-terminal His tag (human, UniProt P12318 34-217)", "T2 construct": "extracellular domain; also called 2aH; FcgRIIa H; not shown: His tag at the C terminus", "T2 sequence (looked up)": "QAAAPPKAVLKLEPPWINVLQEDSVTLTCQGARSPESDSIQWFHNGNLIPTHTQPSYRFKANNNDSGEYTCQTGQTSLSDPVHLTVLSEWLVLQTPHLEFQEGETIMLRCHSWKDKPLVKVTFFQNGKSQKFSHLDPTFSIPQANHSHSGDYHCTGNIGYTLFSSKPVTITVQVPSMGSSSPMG", "assay": "SPR (Biacore), antibody captured on antigen-peptide chip, FcγR as analyte; GpH7-A5/GpH7-B3/GpL16-k0 = 100", "procedure": "as §1, §2"}, "[3]": {"biological_target": "T2, FcγRIIa H (FcγRIIa type H, His at …)", "assay": "ratio of He/Con_2aH (FcγRIIa H) to He/Con_2b (FcγRIIb), SPR relative binding", "procedure": "as §1, §2"}, "[4]": {"biological_target": "T3, FcγRIIIa extracellular domain with C-terminal His tag (human, UniProt P08637 17-208)", "T3 construct": "extracellular domain; also called FcgRIIIa; 3a; not shown: His tag at the C terminus", "T3 sequence (P08637 17-208)": "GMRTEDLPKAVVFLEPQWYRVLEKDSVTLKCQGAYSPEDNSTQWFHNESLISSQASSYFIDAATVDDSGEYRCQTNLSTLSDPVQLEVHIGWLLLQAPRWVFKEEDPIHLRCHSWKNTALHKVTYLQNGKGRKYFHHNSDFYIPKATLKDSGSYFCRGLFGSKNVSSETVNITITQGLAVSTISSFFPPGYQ", "assay": "SPR; He/Con_3a divided by He/Con_2b (binding to FcγRIIb is the reference)", "procedure": "as §2\n(§3) The FcγR-binding activity of each antibody was assessed primarily using as an indicator the FcγR-binding activity and dissociation constant for FcγR."}, "[5]": {"biological_target": "T4, FcγRIIb extracellular domain with C-terminal His tag (human, UniProt P31994 43-217)", "T4 construct": "extracellular domain; also called FcgRIIb; 2b; not shown: His tag at the C terminus", "T4 sequence (looked up)": "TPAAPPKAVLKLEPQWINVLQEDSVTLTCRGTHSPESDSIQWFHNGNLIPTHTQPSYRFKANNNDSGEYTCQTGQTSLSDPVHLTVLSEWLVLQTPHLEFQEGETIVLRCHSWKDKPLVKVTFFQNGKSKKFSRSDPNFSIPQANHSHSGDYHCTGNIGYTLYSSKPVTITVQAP", "assay": "SPR (Biacore), antibody captured on antigen peptide chip, FcγR as analyte; relative binding amount", "procedure": "as §2, §3"}, "[6]": {"biological_target": "T3, FcγRIIIa extracellular domain with …", "assay": "SPR (Biacore), antibody captured on antigen peptide chip, FcγR as analyte; relative binding amount", "procedure": "as §2, §3"}}}
{"binder": "B1", "values": [{"measurement": "He/Con_2b (relative binding activity)", "setting": "[1]", "value": "181 % of control"}, {"measurement": "He/Con_2aH (relative binding activity)", "setting": "[2]", "value": "112 % of control"}, {"measurement": "He_2aH/2b (IIaH/IIb ratio)", "setting": "[3]", "value": 0.62}]}
{"binder": "B2", "values": [{"measurement": "He_3a/2b (IIIa/IIb)", "setting": "[4]", "value": 0.53, "unit": "ratio"}, {"measurement": "He/Con_2b", "setting": "[5]", "value": "144 % of GpH7-A5/GpH7-B3/GpL16-k0 (=100)"}, {"measurement": "He/Con_3a", "setting": "[6]", "value": "76.2 % of GpH7-A5/GpH7-B3/GpL16-k0 (=100)"}]}
{"binder": "B3", "values": [{"measurement": "He/Con_2b (relative binding activity)", "setting": "[1]", "value": "15.2 % of control"}, {"measurement": "He/Con_2aH (relative binding activity)", "setting": "[2]", "value": "10.1 % of control"}, {"measurement": "He_2aH/2b (IIaH/IIb ratio)", "setting": "[3]", "value": 0.66}]}
{"binder": "B4", "values": [{"measurement": "He/Con_2b (relative binding activity)", "setting": "[1]", "value": "152 % of control"}, {"measurement": "He/Con_2aH (relative binding activity)", "setting": "[2]", "value": "106 % of control"}, {"measurement": "He_2aH/2b (IIaH/IIb ratio)", "setting": "[3]", "value": 0.69}]}
{"binder": "B5", "values": [{"measurement": "He/Con_2b (relative binding activity)", "setting": "[1]", "value": "82.3 % of control"}, {"measurement": "He/Con_2aH (relative binding activity)", "setting": "[2]", "value": "43.3 % of control"}, {"measurement": "He_2aH/2b (IIaH/IIb ratio)", "setting": "[3]", "value": 0.53}]}
{"binder": "B6", "values": [{"measurement": "He/Con_2b (relative binding activity)", "setting": "[1]", "value": "119 % of control"}, {"measurement": "He/Con_2aH (relative binding activity)", "setting": "[2]", "value": "94.2 % of control"}, {"measurement": "He_2aH/2b (IIaH/IIb ratio)", "setting": "[3]", "value": 0.79}]}
{"binder": "B7", "values": [{"measurement": "He/Con_2b (relative binding activity)", "setting": "[1]", "value": "54.4 % of control"}, {"measurement": "He/Con_2aH (relative binding activity)", "setting": "[2]", "value": "27 % of control"}, {"measurement": "He_2aH/2b (IIaH/IIb ratio)", "setting": "[3]", "value": 0.5}]}
